Assay results published in patent publication US20020034537A1, “Cationic diagnostic, imaging and therapeutic agents associated with activated vascular sites” (priority 2000, published 2002).
Read-outs that look alike come from different tables or passages of the source.

Key:
[1] = normal tissues, Adamson et al. (1988); cited from earlier work
[2] = Time constant of plasma clearance; type: in vivo, SCID mice; conditions: i.v. bolus, arterial blood within 30 min
[3] = Isoelectric focusing of charge-modified proteins; type: physicochemical
Description: Isoelectric points of the proteins were determined by isoelectric focusing using polyacrylamide gel slabs on a vertical electrofocusing apparatus. pl was quantified by comparison with protein standards (Bio-Rad) after Coomassie Blue staining of the gels. The molecular weights of the proteins were analyzed by SDS-PAGE (Mini-Protean II; Bio-Rad) with and without reducing agent P-mercaptoethanol in the sample buffer.

[4] = Data from Yuan et al. (1995); cited from earlier work
[5] = Data from Yuan et al. (1995); cited from earlier work; remark: listed apart in the source

In the case of “(x-lactalbumin: protein, MW=14,176; net charge −10 (Adamson et al. 1988)”, the “microvascular permeability relative to ribonuclease” value [1] is given as “approximately 50%”.

With “Anionized BSA: rhodamine-labeled bovine serum albumin anionized by succinylation” the “Median K, time constant of concentration decay in the plasma” value (shortened to “Median K, time constant”) [2] was 40.8 100s.

For “Cationized BSA: rhodamine-labeled bovine serum albumin cationized by conjugation with hexamethylenediamine”, the “pI (range)” value [3] was 8.6-9.1 and the “Median K, time constant” value [2] was 12.7 100s.

In the case of “Native BSA: fluorescently labeled native bovine serum albumin, data from Yuan et al. (1995)”, the “pI (range)” value [4] is given as 4.5 and the “Median K, time constant” value [5] is given as 80.5 100s.
